B1: Klebsiella pneumoniae SSB (natural protein, UniProt A6TGW7 1-174, looked up)
chain: MASRGVNKVILVGNLGQDPEVRYMPSGGAVANFTLATSESWRDKQTGEMKEQTEWHRVVLFGKLAEVAGEYLRKGSQVYIEGQLRTRKWTDQSGQDKYTTEVVVNVGGTMQMLGGRQGGGAPAGGGQQQGGWGQPQQPQGGNQFSGGAQSRPQQQAPAAPSNEPPMDFDDDIPF
notes: amino acids 120-174 not observed in the crystal structure; the gene spans 525 nt; also called KpSSB; source: E. coli, purified (ammonia sulfate precipitation, Q and Heparin columns)
B2: dT15 (ssDNA)
DNA: TTTTTTTTTTTTTTT
B3: dT50 (ssDNA)
DNA: TTTTTTTTTTTTTTTTTTTTTTTTTTTTTTTTTTTTTTTTTTTTTTTTTT
B4: dT25 (ssDNA)
DNA: TTTTTTTTTTTTTTTTTTTTTTTTT
B5: dT60 (ssDNA)
DNA: TTTTTTTTTTTTTTTTTTTTTTTTTTTTTTTTTTTTTTTTTTTTTTTTTTTTTTTTTTTT
B6: dT55 (ssDNA)
DNA: TTTTTTTTTTTTTTTTTTTTTTTTTTTTTTTTTTTTTTTTTTTTTTTTTTTTTTT
B7: dT30 (ssDNA)
DNA: TTTTTTTTTTTTTTTTTTTTTTTTTTTTTT
B8: dT40 (ssDNA)
DNA: TTTTTTTTTTTTTTTTTTTTTTTTTTTTTTTTTTTTTTTT
B9: dT20 (ssDNA)
DNA: TTTTTTTTTTTTTTTTTTTT

Experiments:
[1] = target: chimeric PriB-SSBc protein (KpPriB1-98 fused KpSSB112-174) (Klebsiella pneumoniae) (UniProt A6THB2); assay: SEC; purified PriB-SSBc 4 mg/mL in 20 mM HEPES, 100 mM NaCl, pH 7.0 on a Superdex 200 prep grade column, calibrated with standard proteins
[2] = target: the molecule itself; assay: crystal structure; KpSSB without DNA, 14 mg/mL, hanging drop vapor diffusion, 20% PEG 3350, 0.2 M magnesium acetate tetrahydrate, pH 6.5; four monomers per asymmetric unit
KpPriB [3] = target: T1, KpPriB (Klebsiella pneumoniae, UniProt A6THB2 1-104); assay: EMSA; ND; up to 50 uM protein; EMSA: 20 mM Tris-HCl pH 8.0, 100 mM NaCl, 25 C, 30 min, 1.7 nM 32P-ssDNA; 8% native PAGE in TBE at 4 C; conditions: protein: recombinant; tags: none (tag-free); chain copies: 2; label: 5'-32P
KpSSB [4] = target: T2, KpSSB (Klebsiella pneumoniae, UniProt A6TGW7 1-174); assay: EMSA; ND; up to 5 uM protein; EMSA: 20 mM Tris-HCl pH 8.0, 100 mM NaCl, 25 C, 30 min, 1.7 nM 32P-ssDNA; 8% native PAGE in TBE at 4 C; conditions: protein: recombinant; tags: none (tag-free); chain copies: 4; label: 5'-32P
KpSSB [5] = target: T2, KpSSB; assay: EMSA; monomer conc.; 1 complex; EMSA: 20 mM Tris-HCl pH 8.0, 100 mM NaCl, 25 C, 30 min, 1.7 nM 32P-ssDNA; 8% native PAGE in TBE at 4 C; conditions: protein: recombinant; tags: none (tag-free); chain copies: 4; label: 5'-32P
KpPriB [6] = target: T1, KpPriB; assay: as above; conditions: protein: recombinant; tags: none (tag-free); chain copies: 2; label: 5'-32P
KpSSB [7] = target: T2, KpSSB; assay: EMSA; monomer conc.; 2 complexes; EMSA: 20 mM Tris-HCl pH 8.0, 100 mM NaCl, 25 C, 30 min, 1.7 nM 32P-ssDNA; 8% native PAGE in TBE at 4 C; conditions: protein: recombinant; tags: none (tag-free); chain copies: 4; label: 5'-32P
KpSSB [8] = target: T2, KpSSB; assay: EMSA; ND; no stable complex up to 5 uM protein; EMSA: 20 mM Tris-HCl pH 8.0, 100 mM NaCl, 25 C, 30 min, 1.7 nM 32P-ssDNA; 8% native PAGE in TBE at 4 C; conditions: protein: recombinant; tags: none (tag-free); chain copies: 4; label: 5'-32P

Row | Molecule | apparent K (half saturation) (KpSSB [5]) | apparent K (half saturation) (KpPriB [6]) | also measured
1 | chimeric PriB-SSBc protein (KpPriB1-98 fused KpSSB112-174) (from UniProt A6THB2 1-98; A6TGW7 112-174) |  |  | stoichiometry N [1]: 2
2 | B1 |  |  | stoichiometry N [2]: 4
3 | B2 |  |  | binding result (KpPriB [3]): no binding; binding result (KpSSB [4]): no binding
4 | B3 | 170 ± 20 nM | 5.6 ± 0.3 µM | 
5 | B4 | 580 ± 50 nM | 14.1 ± 1 µM | 
6 | B5 |  | 4.8 ± 0.5 µM | apparent K (half saturation) (KpSSB [7]): 50 ± 10 nM
7 | B6 |  | 4.9 ± 0.5 µM | apparent K (half saturation) (KpSSB [7]): 130 ± 10 nM
8 | B7 | 550 ± 40 nM | 9.2 ± 0.8 µM | 
9 | B8 | 230 ± 10 nM | 9.1 ± 0.8 µM | 
10 | B9 |  |  | binding result (KpSSB [8]): no binding

Reference: article PMC8509808, “Characterization of the Chimeric PriB-SSBc Protein” (International Journal of Molecular Sciences, 2021)
